We go through one substance from patent publication US20200255516A1.

In the assay the target is Full-length human TIGIT on CHO cells overexpressing TIGIT (human) (UniProt Q495A1). Description: FACS blocking assay on TIGIT-CHO cells; competitor CF633-labeled CD155-Fc at 2 ug/ml.

pIC50: −log10 of the molar value. Bounds are passed on as bounds.

Sequence of Full-length human TIGIT on CHO cells overexpressing TIGIT (human) (Q495A1 22-244 limits assumed): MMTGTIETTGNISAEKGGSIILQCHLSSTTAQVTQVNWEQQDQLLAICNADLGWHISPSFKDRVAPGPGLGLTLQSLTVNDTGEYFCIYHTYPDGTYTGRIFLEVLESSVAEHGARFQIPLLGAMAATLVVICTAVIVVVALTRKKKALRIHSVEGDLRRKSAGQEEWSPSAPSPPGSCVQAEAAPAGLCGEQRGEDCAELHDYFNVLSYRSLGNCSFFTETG

A word on the pIC50: it is the IC50 on a negative log10 scale, so that one unit is a factor of ten. High values mean a low IC50, low ones a high IC50. For human IgG4 antibody (hIgG4), the pIC50 is < 5.00.
